Positions count from the first letter of the chain named. Numbers in names are those of the source.
B1: recombinant FLT3-D835Y mutant kinase (protein)
chain: HKYKKQFRYESQLQMVQVTGSSDNEYFYVDFREYEYDLKWEFPRENLEFGKVLGSGAFGKVMNATAYGISKTGVSIQVAVKMLKEKADSSEREALMSELKMMTQLGSHENIVNLLGACTLSGPIYLIFEYCCYGDLLNYLRSKREKFHRTWTEIFKEHNFSFYPTFQSHPNSSMPGSREVQIHPDSDQISGLHGNSFHSEDEIEYENQKRLEEEEDLNVLTFEDLLCFAYQVAKGMEFLEFKSCVHRDLAARNVLVTHGKVVKICDFGLARYIMSDSNYVVRGNARLPVKWMAPESLFEGIYTIKSDVWSYGILLWEIFSLGVNPYPGIPVDANFYKLIQNGFKMDQPFYATEEIYIIMQSCWAFDSRKRPSFPNLTSFLGCQLADAEEAMYQNVDGRVSECPHTYQNRRPFSREMDLGLLSPQAQVEDS
B2: recombinant wild type FLT3 kinase (FLT3-WT) (protein)
chain: B1 chain with Y272D

Key:
[1] = molecular target: FLT3 Artificial Substrate (FAS) candidate sequence F
[2] = molecular target: FLT3 Artificial Substrate (FAS) candidate sequence C
[3] = molecular target: FLT3 Artificial Substrate (FAS) candidate sequence H
[4] = molecular target: FLT3 Artificial Substrate (FAS) candidate sequence B
[5] = molecular target: FLT3 Artificial Substrate (FAS) candidate sequence E
[6] = molecular target: FLT3 Artificial Substrate (FAS) candidate sequence A
[7] = molecular target: FLT3 Artificial Substrate (FAS) candidate sequence G
[8] = molecular target: FLT3 Artificial Substrate (FAS) candidate sequence D

Protein | phosphorylation, in vitro kinase assay [1] | phosphorylation, in vitro kinase assay [2] | phosphorylation, in vitro kinase assay [3] | phosphorylation, in vitro kinase assay [4] | phosphorylation, in vitro kinase assay [5] | phosphorylation, in vitro kinase assay [6] | phosphorylation, in vitro kinase assay [7] | phosphorylation, in vitro kinase assay [8] | phosphorylation, in vitro kinase assay, 60-minute incubation [6]
B1 | Sequences E, F and G were also phosphorylated by FLT3-D835Y but at lower levels than FL-Abltide | Candidate sequences A, B, C displayed higher levels of phosphorylation by FLT3-D835Y compared to FL-Abltide | sequence H showed no phosphorylation | Candidate sequences A, B, C displayed higher levels of phosphorylation by FLT3-D835Y compared to FL-Abltide | Sequences E, F and G were also phosphorylated by FLT3-D835Y but at lower levels than FL-Abltide | Candidate sequences A, B, C displayed higher levels of phosphorylation by FLT3-D835Y compared to FL-Abltide | Sequences E, F and G were also phosphorylated by FLT3-D835Y but at lower levels than FL-Abltide |  | 
B2 | The remaining sequences did not get phosphorylated by FLT3-WT |  | The remaining sequences did not get phosphorylated by FLT3-WT | The remaining sequences did not get phosphorylated by FLT3-WT | The remaining sequences did not get phosphorylated by FLT3-WT |  | The remaining sequences did not get phosphorylated by FLT3-WT | The remaining sequences did not get phosphorylated by FLT3-WT | Sequence A showed a similar level of phosphorylation compared to Abltide over a 60-minute incubation
